Results published in paper doi:10.1101/2020.02.18.953711 (bioRxiv, 2020).

Target: T1, CEPR2^KD-His (Arabidopsis thaliana, UniProt Q9C7T7 642-977)
T1 sequence (looked up): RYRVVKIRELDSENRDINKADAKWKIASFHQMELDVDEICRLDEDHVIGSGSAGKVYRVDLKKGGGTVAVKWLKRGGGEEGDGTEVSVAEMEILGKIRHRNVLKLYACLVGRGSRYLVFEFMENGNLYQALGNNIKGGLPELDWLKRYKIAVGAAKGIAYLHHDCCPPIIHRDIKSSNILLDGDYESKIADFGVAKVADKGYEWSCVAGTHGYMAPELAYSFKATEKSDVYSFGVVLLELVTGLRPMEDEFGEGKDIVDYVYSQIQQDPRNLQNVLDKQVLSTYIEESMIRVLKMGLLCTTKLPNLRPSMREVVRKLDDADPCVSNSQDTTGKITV
Test: pull-down

- binding result: binds
B1: NRT1.2^loop-GST (domain or fragment, Arabidopsis thaliana, UniProt Q8H157 232-346, looked up)
chain: SGSRFYRNKIPCGSPLTTILKVLLAASVKCCSSGSSSNAVASMSVSPSNHCVSKGKKEVESQGELEKPRQEEALPPRAQLTNSLKVLNGAADEKPVHRLLECTVQQVEDVKIVLK
